Blank lines part the entries; values can stand above or below the molecule they belong to. Square brackets hold non-standard residues; d marks the D form. Ends that are not written are not given here. dPhe(4-Cl) = N[C@H](Cc1ccc(Cl)cc1)C(=O)O; Aib = CC(C)(N)C(=O)O
Columns and labels:
VIP receptors = assay: Displacement assay using 125I labeled VIP (10-28) fragment on human tumor cell lines; details: inhibition of 125I labeled VIP (10-28) fragment binding
Protocol: Peptides of the invention were assayed for biological activity in homogeneous competition binding assays using ^125I labeled VIP peptide (SEQ ID NO:1) and in heterogeneous displacement assays using either ^125I labeled VIP (10-28) fragment (Tyr-Thr-Arg-Leu-Arg-Lys-Gln-Met-Ala-Val-Lys-Lys-Tyr-Leu-Asn-Ser-Ile-Leu-Asn-NH2) (SEQ ID NO: 12) or ^125I labeled VIP (SEQ ID NO:1). The assays were performed on a variety of human tumor cell lines.
In the practice of these methods, the peptide was radioiodinated using the iodogen method. Briefly, 5 μg of the peptide in 10 μl of 50 mM PBS (pH 7.5), an appropriate amount of the radioisotope and 50 μg-100 μg iodogen were incubated at room temperature for 15-30 min with occasional mixing. Radioiodinated peptide was purified from unincorporated radioactive iodine by purification on a Sep Pak C18 cartridge, essentially following the same procedure as described for technetium labeling.
Displacement assays were performed at 4-8° C. Briefly, 50,000 cells were plated per well of a 24 well plate and allowed to adhere overnight. Before the assay, the cells were washed twice with ice cold Binding buffer (25 mM HEPES, 10 mM MgCl2 and 1% BSA in RPMI 1640 medium). The cells were incubated for 2-3hrs with an appropriate concentration (0.1-10 nM) of ^125I labeled VIP (10-28) fragment (SEQ ID NO:12) in the presence and absence of the cold ligand (SEQ ID NO: 2) (1 nM-10 μM). The non specific binding was ascertained using 10 μM of VIP. After incubation, the cells were washed thrice with the binding buffer to remove the unbound peptide. The cells were lysed and counts were measured in a Gamma counter. From a comparison of the extent of binding in the presence or absence of the unlabeled peptide, a concentration was determined corresponding to inhibition of ^125I labeled VIP (10-28) fragment binding by 50% (termed the IC50) (TABLE III).
The following tumor cell lines were assayed using the above described displacement assay: HT29 (human colorectal adenocarcinoma); PTC (human primary tumor cells adenocarcinoma); KB (human squamous cell carcinoma); 4451 (human squamous cell carcinoma); L132 (human lung carcinoma); A549 (human lung carcinoma); HBL100 (human breast carcinoma) and PA1 (human ovarian carcinoma).
Cells were grown in RPMI 1640 supplemented with 10% fetal calf serum, glutamine and antibiotics using standard cell culture techniques (see Animal Cell Culture: A Practical Approach, Freshney, ed, IRL press: Oxford, UK, 1992).

[1] = target: low affinity (µM range), high surface expression receptor on human tumor cells (VIP receptor) (human); assay: homologous radioligand competition, 125I-SEQ ID NO:2 on 4451 cells
[2] = target: high affinity (nM range), low surface expression receptor on human tumor cells (VIP receptor) (human); assay: as above
[3] = target: low affinity (µM range), high surface expression receptor on human tumor cells (VIP receptor) (human); assay: maximal binding, 125I-SEQ ID NO:2 on HBL 100 cells
[4] = target: high affinity (nM range), low surface expression receptor on human tumor cells (VIP receptor) (human); assay: maximal binding, 125I-SEQ ID NO:2 on HBL 100 cells
[5] = target: VIP receptors on human tumor cell lines (human); assay: displacement of 125I labeled VIP (10-28) fragment on PA1 cells
[6] = target: VIP receptors on human tumor cell lines (human); assay: displacement of 125I labeled VIP (10-28) fragment on 4451 cells
[7] = target: low affinity (µM range), high surface expression receptor on human tumor cells (VIP receptor) (human); assay: homologous radioligand competition, 125I-SEQ ID NO:2 on PA1 cells
[8] = target: high affinity (nM range), low surface expression receptor on human tumor cells (VIP receptor) (human); assay: as above
[9] = target: low affinity (µM range), high surface expression receptor on human tumor cells (VIP receptor) (human); assay: homologous radioligand competition, 125I-SEQ ID NO:2 on HT29 cells
[10] = target: high affinity (nM range), low surface expression receptor on human tumor cells (VIP receptor) (human); assay: as above
[11] = target: VIP receptors on human tumor cell lines (human); assay: displacement of 125I labeled VIP (10-28) fragment on L132 cells
[12] = target: VIP receptors on human tumor cell lines (human); assay: displacement of 125I labeled VIP (10-28) fragment on HT29 cells
[13] = target: low affinity (µM range), high surface expression receptor on human tumor cells (VIP receptor) (human); assay: maximal binding, 125I-SEQ ID NO:2 on PA1 cells (printed PAI)
[14] = target: high affinity (nM range), low surface expression receptor on human tumor cells (VIP receptor) (human); assay: as above
[15] = target: VIP receptors on human tumor cell lines (human); assay: displacement of 125I labeled VIP (10-28) fragment on PTC cells

Molecule: His-Ser-Asp-Aib-Val-4-Cl-D-Phe-Thr-Asp-Asn-Tyr-Thr-Arg-Leu-Arg-Lys-Gln-Leu-Ala-Val-Lys-Lys-Tyr-Leu-Asn-Ser-Ile-Leu-Asn-NH2 (HSD[Aib]V[dPhe(4-Cl)]TDNYTRLRKQLAVKKYLNSILN-NH2; N-terminus assumed; SMILES CC[C@H](C)[C@H](NC(=O)[C@H](CO)NC(=O)[C@H](CC(N)=O)NC(=O)[C@H](CC(C)C)NC(=O)[C@H](Cc1ccc(O)cc1)NC(=O)[C@H](CCCCN)NC(=O)[C@H](CCCCN)NC(=O)[C@@H](NC(=O)[C@H](C)NC(=O)[C@H](CC(C)C)NC(=O)[C@H](CCC(N)=O)NC(=O)[C@H](CCCCN)NC(=O)[C@H](CCCNC(=N)N)NC(=O)[C@H](CC(C)C)NC(=O)[C@H](CCCNC(=N)N)NC(=O)[C@@H](NC(=O)[C@H](Cc1ccc(O)cc1)NC(=O)[C@H](CC(N)=O)NC(=O)[C@H](CC(=O)O)NC(=O)[C@@H](NC(=O)[C@@H](Cc1ccc(Cl)cc1)NC(=O)[C@@H](NC(=O)C(C)(C)NC(=O)[C@H](CC(=O)O)NC(=O)[C@H](CO)NC(=O)[C@@H](N)Cc1c[nH]cn1)C(C)C)[C@@H](C)O)[C@@H](C)O)C(C)C)C(=O)N[C@@H](CC(C)C)C(=O)N[C@@H](CC(N)=O)C(N)=O) [SEQ ID NO:2, VIP receptor antagonist, preferred peptide (Xxx = Aib)]
IC50 (VIP receptors; 4451 cells): 0.383 nM
IC50 (VIP receptors; A549 cells): 0.275 nM
IC50 (VIP receptors; HBL 100 cells): 0.236 nM
IC50 (VIP receptors; HT29 cells): 0.22 nM
IC50 (VIP receptors; KB cells): 0.35 nM
IC50 (VIP receptors; L132 cells): 0.228 nM
IC50 (VIP receptors; PA1 cells): 0.31 nM
IC50 (VIP receptors; PTC cells): 0.132 nM

Kd [1]: 1910 nM
Kd [2]: 4.48 nM
Bmax2 [3]: 69.1 nM
Bmax1 [4]: 697 pM
IC50 [5]: 0.31 nM
IC50 [6]: 0.383 nM
Kd [7]: 1890 nM
Kd [8]: 5.6 nM
Kd [9]: 1370 nM
Kd [10]: 3.8 nM
IC50 [11]: 0.228 nM
IC50 [12]: 0.22 nM
Bmax2 [13]: 47.7 nM
Bmax1 [14]: 529 pM
IC50 [15]: 0.132 nM
Molecule: HSD[Aib]V[dPhe(4-Cl)]TDNYTRLRKQLAVKKYLNSILN-NH2 (also: 125I-labelled form (iodogen) used as tracer)

Reference: patent US6608174B1, “Radiolabeled vasoactive intestinal peptide analogs for diagnosis and radiotherapy” (Dabur Research Foundation, priority 2000, dated 2003)
